Broadly, the EC50 is the concentration needed to bring the measured effect to its halfway point. Higher therefore signals lower potency in that assay. One may read the Kd as the equilibrium constant for the complex coming apart. High values mean a looser complex, low ones a tighter complex. What is called koff is the first-order rate constant of dissociation. As a reminder, the kon is the second-order rate constant of association. Lower therefore signals slow association. As usually defined, the EC50 (read off the curve) is the concentration giving half of the maximal effect.

Experiment [1] concerns the target T1, full length human TROP2 on 293F-TROP2 cells (human, UniProt P09758 27-323).
T1 construct: also called 293F-TROP2 cells (clone ID #3A8); cell surface TROP2
T1 sequence: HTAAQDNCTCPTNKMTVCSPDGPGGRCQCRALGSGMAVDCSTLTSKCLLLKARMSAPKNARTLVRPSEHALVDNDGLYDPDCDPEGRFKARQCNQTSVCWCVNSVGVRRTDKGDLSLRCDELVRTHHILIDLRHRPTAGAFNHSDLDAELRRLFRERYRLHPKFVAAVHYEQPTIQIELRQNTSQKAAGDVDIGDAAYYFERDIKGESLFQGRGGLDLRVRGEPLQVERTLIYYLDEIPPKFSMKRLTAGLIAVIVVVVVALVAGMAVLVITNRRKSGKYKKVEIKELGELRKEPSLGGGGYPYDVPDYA
Briefly: FACS on 293F-TROP2 cells, MFI. On the procedure:
The binding activity of the mouse anti-TROP2 antibodies to cell surface TROP2 proteins was tested by flow cytometry (FACS), using Biosion in-house prepared 293F-TROP2 cells (clone ID #3A8) stably expressing full length human TROP2s (uniprot #P09758, SEQ ID NO.: 71) on cell membrane. The 293F-TROP2 cells were prepared by transfecting 293F cells (Thermofisher Inc., Cat #11625019) with a pCMV-T-P plasmid inserted with human TROP2 coding sequence between EcoRI and XbaI sites, following the instruction of lipofectamine 3000 transfection reagent (Thermo Fisher).
(§1) The 293F-TROP2 cells were harvested from cell culture flasks, washed twice and re-suspended in phosphate buffered saline (PBS) containing 2% v/v Fetal Bovine Serum (FACS buffer). […] Following an incubation of 40 minutes at 4° C. in dark, cells were washed twice and re-suspended in FACS buffer. Fluorescence was measured using a Becton Dickinson FACS Canto II-HTS equipment, and the MFI (mean fluorescence intensity) was plotted against antibody concentration. Data was analyzed using Graphpad Prism software and EC₅₀ values were reported.

Experiment [2] deals with T1, full length human TROP2 on 293F-TROP2 …. Description: FACS on 293F-TROP2 cells, MFI. On the procedure:
as §1
The source holds these as a separate data set.

The target in experiment [3] is T2, cynomolgus TROP2-his protein (cynomolgus monkey, UniProt P09758 27-272 (human entry), limits assumed).
T2 construct: no cleavage site is stated; also called Cynomolgus monkey TROP2-his protein; monkey TROP2
T2 chain: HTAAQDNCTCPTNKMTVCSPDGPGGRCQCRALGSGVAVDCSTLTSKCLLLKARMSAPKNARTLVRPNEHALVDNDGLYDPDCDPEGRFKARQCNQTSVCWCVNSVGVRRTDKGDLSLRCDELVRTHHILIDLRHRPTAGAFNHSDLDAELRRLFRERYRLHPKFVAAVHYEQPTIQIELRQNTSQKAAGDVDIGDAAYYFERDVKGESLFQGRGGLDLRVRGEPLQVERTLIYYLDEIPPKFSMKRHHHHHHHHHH
Briefly: indirect ELISA, cynomolgus TROP2-his coated, OD(450-630). (An ELISA detects its analyte on a solid surface through an enzyme-linked reagent.)

The target of experiment [4] is T3, human TROP2-his protein (human, UniProt P09758 27-274).
T3 construct: Biotin-labelled in the ELISAs, unlabelled analyte in Biacore; also called biotin-labeled human TROP2-his protein; biotin human Trop2-his
T3 sequence: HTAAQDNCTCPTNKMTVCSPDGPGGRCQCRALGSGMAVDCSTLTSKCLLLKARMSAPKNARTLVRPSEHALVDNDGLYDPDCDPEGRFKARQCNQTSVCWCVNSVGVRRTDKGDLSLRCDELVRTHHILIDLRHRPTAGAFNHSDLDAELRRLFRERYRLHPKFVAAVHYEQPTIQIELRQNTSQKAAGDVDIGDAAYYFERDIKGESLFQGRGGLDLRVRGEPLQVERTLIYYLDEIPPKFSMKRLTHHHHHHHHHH
Description: SPR Biacore T200, mAb captured on anti-mouse IgG CM5 chip, TROP2-his analyte. On the procedure:
(§2) Un-reacted moieties on the chip (biosensor) surface were blocked with ethanolamine. […] The antigen-antibody association kinetics was followed for 2 minutes and the dissociation kinetics was followed for 10 minutes. The association and dissociation curves were fit to a 1:1 Langmuir binding model using BIAcore evaluation software.
Background: Surface plasmon resonance follows binding to a sensor surface in real time, without labels.

Experiment [5] addresses T2, cynomolgus TROP2-his protein. Described as above. On the procedure: as §2
Experiment [6] has as its target T3, human TROP2-his protein. Description: capture ELISA, antibody captured on anti-mouse IgG Fc coat, biotin human TROP2-his in solution, OD(450-630). On the procedure: Plates were washed once with wash buffer (PBS+0.05% v/v Tween-20, PBST) and then blocked with 200 μl/well blocking buffer (5% w/v non-fatty milk in PBST) for 2 hours at 37° C. […] Plates containing captured anti-TROP2 antibodies were incubated with biotin-labeled human TROP2-his protein (prepared in house, SEQ ID NO: 67, 56.7 ng/mL in 2.5% w/v non-fatty milk in PBST, 100 μl/well) for 40 minutes at 37° C., washed 4 times, and incubated with streptavidin conjugated HRP (1:10000 dilution in PBST, Jackson Immuno Research, Cat #016-030-084, 100 μl/well) for 40 minutes at 37° C. After a final wash, plates were incubated with 100 μl/well ELISA substrate TMB (Innoreagents, Cat #TMB-S-002) at room temperature. The reaction was stopped in 3-10 minutes at room temperature with 50 μl/well 1M H₂SO₄, and the absorbance of each well was read on a microplate reader using dual wavelength mode with 450 nm for TMB and 630 nm as the reference wavelength. The OD (450-630) values were plotted against antibody concentration. Data was analyzed using Graphpad Prism software and EC₅₀ values were reported.

Substitutions are numbered along the chain they refer to. Read-outs that look alike come from different tables or passages of the source.

B1: benchmark (in house prepared sacituzumab) (antibody, human IgG1, kappa, V domains shown)
VH: SVQLQQSGSELKKPGASVKVSCKASGYTFTNYGMNWVKQAPGQGLKWMGWINTYTGEPTYTDDFKGRFAFSLDTSVSTAYLQISSLKADDTAVYFCARGGFGSSYWYFDVWGQGSLVTVSS
VL: DIQLTQSPSSLSASVGDRVSITCKASQDVSIAVAWYQQKPGKAPKLLIYSASYRYTGVPDRFSGSGSGTDFTLTISSLQPEDFAVYYCQQHYITPLTFGAGTKVEIKR
notes: also called BM; BM1
With B1, the values for the EC50 in experiment [1], in experiment [2] and in experiment [3] were 0.83 nM, 1.32 nM and 0.191 nM, respectively.

B2: mouse antibody A1E11A12D1 (antibody, V domains shown)
VH: QVQLQQSGAELARPGASVKLSCMASGYTFTTYGISWVRQRTGQGLEWIGQIYPGSDYSYCDEDFKGKATLTADKSSSTAYMQLSSLTSEDSAVYFCARASYFDYWGQGTTLTVSS
VL: DILLTQSPAILSVSPGERVSFSCRASQTIGTAIHWYQQRANGSPRLLIKYASESISGIPSRFSGSGSGTDFALSINTVESEDFAYYYCQQSNNWPFTFGGGTKLEIR
notes: Mouse monoclonal IgG purified from hybridoma supernatant
The molecule B2 showed an EC50 in experiment [1] of 0.78 nM. In experiment [4], this molecule returned a Kd of 0.154 nM, an off-rate constant (koff) of 8.09e-05 s⁻¹ and a kon of 525000 M⁻¹ s⁻¹. For the same molecule, in experiment [5], the affinity, expressed as Kd, was 0.0563 nM; the koff is 3.82e-05 s⁻¹; the kon was found to be 678000 M⁻¹ s⁻¹. The same molecule registered a concentration for a half-maximal effect (EC50) in experiment [6] of 0.13 nM.

B3: mouse antibody A1H3C5H8E12 (antibody, V domains shown)
VH: QVQLQQSGAELVRPGTSVKMSCKAAGYTFTNYWIDWVKQRPGHGLEWIGNIFPGGFYTNYNEKFKGKATLTADTSSSTAYMQLSSLTSEDSAIYYCARGGVFDYWGQGTTLTVSS
VL: B2 VL with T28S, A32S, A40T, A72T, T77S, F83I, Y85D, N93S, F96Y, R107K
notes: as for B2
As for B3, the EC50 was 0.773 nM in experiment [1] and 0.303 nM in experiment [6]. Moreover, the Kd was found to be 1.81 nM in experiment [4] and 1.12 nM in experiment [5]. Also, the off-rate constant (koff) in experiment [4] is 0.000961 s⁻¹; in experiment [5], 0.000758 s⁻¹. Moreover, the kon stood at 531000 M⁻¹ s⁻¹ in experiment [4] and 674000 M⁻¹ s⁻¹ in experiment [5].

B4: mouse antibody A1E4F7D4 (antibody, V domains shown)
VH: QVQLQQSGAELAKPGTSVKMSCEASGYSFTTHWIHWMKQRPGQGLEWIGTIFPSNAYAVYNQKFRDRAIMTADRSSTTAYIQLTGLTSEDSAVYYCARASYFDYWGQGTTLTVSS
VL: DILLTQSPATLSVSPGERVTFSCRASQNIGTSIHWFQQRTTGSPRLLIKYASESISGIPSRFSGSGSGTDFTLHINSVESEDIAHYYCQHSHSWPFTFGSGTKLEIQ
notes: Mouse monoclonal IgG purified from hybridoma supernatant; also called Mouse A1E4F7D4
On to B4, for which the 50% effective concentration (EC50) in experiment [1] came out at 0.481 nM; in experiment [2], 1.48 nM; in experiment [3], 0.177 nM; in experiment [6], 0.0891 nM. Also, the koff in experiment [4] was ~4.7e-05 s⁻¹; in experiment [5], ~4.54e-05 s⁻¹. The kon in experiment [4] was 373000 M⁻¹ s⁻¹; in experiment [5] it was 483000 M⁻¹ s⁻¹.

B5: huA1E4F7D4-V16 (antibody, human IgG1, kappa, V domains shown)
VH: QVQLVQSGAEVKKPGASVKVSCKASGYSFTTHWIHWVRQAPGQGLEWIGTIFPSNAYAVYNQKFRDRATMTADTSISTAYIELSRLRSDDTAVYYCARASYFDYWGQGTTVTVSS
VL: EIVLTQSPATLSLSPGERATLSCRASQNIGTSIHWFQQKPGGAPRLLIKYASESISGIPSRFSGSGSGTDFTLTISSLEPEDFAVYYCQHSHSWPFTFGQGTKLEIKR
notes: Positions of the X residues are given in the claims; also called humanized antibody huA1E4F7D4-V16
In turn, B5 displayed an EC50 in experiment [2] of 0.596 nM.

B6: mouse antibody C1B3B12D2 (antibody, V domains shown)
VH: QVQLQQSGPELVRPGTSVKMSCKAAGYTFTKFWIGWVKQRPGHGLEWIGNIYPGGAYINYNENFKGKATLTADTFSSTAYMQLNSLTSADSAIYYCAREGSSGYWGQGTTLTVSS
VL: DIVMTQSPSSLTVTAGEKVTLSCKCSQSLLNSGTQENYLTWYQQKPGQPPKMLIYWASIREPGVPDRFTGSGSGTDFTLTINNVQAEDLAVYYCQHDYSYPFTFGSGTKLEIK
notes: as for B2
Take B6: in experiment [1], the “EC50 (read off the curve)” value was ~1 nM. In experiment [3], this molecule registered a concentration giving a half-maximal response (EC50) of 0.0849 nM. In experiment [4], the Kd was found to be 0.00136 nM, the koff stood at 6.45e-07 s⁻¹ and the kon is 476000 M⁻¹ s⁻¹. In experiment [5], this molecule displayed a Kd of 0.00186 nM, a koff of 9.44e-07 s⁻¹ and a kon of 508000 M⁻¹ s⁻¹. Moreover, a half-maximal effect in experiment [6] (EC50) was put at 0.107 nM.

The record behind these values is patent US20240207432A1 (BIOSION, published 2024).
